Measurements from patent publication US20240352102.

Key:
[1] = tested on: tau isoform 1N3R (3R tau, MAPT) (Homo sapiens), P10636-4; assay: SPR; conditions: 50 mM HEPES, 25 mM NaCl, 0.1% Tween-20, pH 7.4; poly(A) length not restated for 3R
[2] = tested on: tau isoform 1N4R (4R tau, MAPT) (Homo sapiens), P10636-7; assay: SPR; conditions: 50 mM HEPES, 25 mM NaCl, 0.1% Tween-20, pH 7.4
tau isoform 1N4R (4R tau, MAPT) (Homo sapiens), P10636-7, sequence (P10636 other isoform, or with tags, fused parts or gaps): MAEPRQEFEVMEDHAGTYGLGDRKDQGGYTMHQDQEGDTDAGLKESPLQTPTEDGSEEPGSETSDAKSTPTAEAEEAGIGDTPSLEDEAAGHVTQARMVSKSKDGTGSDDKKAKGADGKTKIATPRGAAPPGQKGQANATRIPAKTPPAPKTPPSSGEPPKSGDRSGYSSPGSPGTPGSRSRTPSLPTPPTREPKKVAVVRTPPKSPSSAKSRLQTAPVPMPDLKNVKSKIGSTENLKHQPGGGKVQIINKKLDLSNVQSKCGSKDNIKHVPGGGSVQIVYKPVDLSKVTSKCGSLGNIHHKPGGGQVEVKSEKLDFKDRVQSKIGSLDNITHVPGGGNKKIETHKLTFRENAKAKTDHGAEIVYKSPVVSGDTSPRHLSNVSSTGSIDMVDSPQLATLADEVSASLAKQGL

tau isoform 1N3R (3R tau, MAPT) (Homo sapiens), P10636-4, sequence (P10636 other isoform, or with tags, fused parts or gaps): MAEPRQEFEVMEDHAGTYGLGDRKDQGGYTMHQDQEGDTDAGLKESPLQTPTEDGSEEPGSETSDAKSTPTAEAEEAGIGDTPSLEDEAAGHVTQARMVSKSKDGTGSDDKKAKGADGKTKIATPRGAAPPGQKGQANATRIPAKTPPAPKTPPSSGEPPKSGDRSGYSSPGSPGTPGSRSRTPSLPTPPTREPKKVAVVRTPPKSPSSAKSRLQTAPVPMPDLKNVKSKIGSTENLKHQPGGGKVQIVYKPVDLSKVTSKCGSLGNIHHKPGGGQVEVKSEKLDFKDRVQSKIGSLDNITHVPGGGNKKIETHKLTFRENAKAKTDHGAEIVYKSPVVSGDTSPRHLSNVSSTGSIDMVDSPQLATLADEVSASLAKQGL

Substance	Kd [1]	Kd ([2]; streptavidin chip, poly(A)20 length from FIG. 1B trace)	Kd [2]
A [biotin poly(A)20 RNA]	8.3 nM	7.2 nM	–
biotin tRNA-Lys	–	–	> 30 nM
